Measured values as given in PMC11407943, “Cdc14 phosphatases use an intramolecular pseudosubstrate motif to stimulate and regulate catalysis” (The Journal of Biological Chemistry, 2024).
Numbering of substitutions follows the chain as printed. Names and notes keep the numbering of the source.

How the values were obtained:
[1] = cited from earlier work
Description: To experimentally characterize the SLiCE motif mechanism, we expressed and purified several recombinant ScCdc14 enzyme variants (Figs. 2A and S2A).

[2] = Steady-state kinetics of Cdc14 enzyme variants toward DiFMUP
Description: B, initial velocities as a function of increasing DiFMUP concentration were measured under steady-state conditions for the indicated ScCdc14 variants. […] Data are average values from at least three independent measurements. Error bars are SDs. Lines are best fits for the Michaelis–Menten equation. C, to better visualize differences in KM, all Vmax values from data in panel A were normalized to 1. D, top: the general PTP-catalyzed reaction scheme with associated rate constants ([50]), where E is enzyme, S is phosphorylated substrate, P is dephosphorylated product, Pi is inorganic phosphate, and E-Pi is the covalent phosphoenzyme intermediate. For simplicity, the reverse catalytic steps are omitted and considered negligible under our experimental conditions. Bottom: definitions of kcat and KM for enzymes following the two step PTP reaction mechanism ([47]). E, a representative presteady-state reaction progress graph for reaction of the indicated ScCdc14 enzyme variants with 200 μM DiFMUP, measured in a stopped flow spectrofluorometer. Data were fit with Equation 1 (see Experimental procedures) to generate rates of the burst phase (kburst) of the reaction. F, kburst was plotted as a function of substrate concentration from presteady-state kinetic measurements with the substrate DiFMUP and the indicated ScCdc14 enzyme variants. Data are averages of three independent measurements and error bars are SDs. Data were fit in GraphPad Prism with Equation 2 (Experimental procedures).
D–E, steady-state kinetic analyses with hCdc14A enzyme variants toward DiFMUP as in Figure 2, B and C. […] In E, Vmax values from data in panel D were normalized to 1 to show differences in KM.
Data from velocity versus substrate concentration plots were fit with the Michaelis–Menten equation in GraphPad Prism (https://www.graphpad.com/) to determine steady-state kinetic parameters kcat and KM. For trans peptide stimulation assays, DiFMUP was used at a single concentration well above the measured KM for each enzyme.

[3] = Catalytic efficiency (kcat/KM) on pooled phosphopeptides by LC-MS; details: 375 nM each pooled phosphopeptide, 30 °C, 10 to 40 min; for catalytic efficiency (kcat/KM) for high affinity substrates: enzyme 0.1–1 μM, at least four independent measurements
Description: Cdc14 catalytic efficiencies toward a pooled set of phosphopeptide variants were measured by LC-MS exactly as described ([49]). […] Reactions were initiated by addition of Cdc14 enzymes (0.1–1 μM final concentration) in 200 μl Cdc14 reaction buffer and incubated at 30 °C for 10 to 40 min 60 μl aliquots were removed and mixed with an equal volume 5% formic acid at desired times to terminate the reactions. Peptides were desalted on C18 spin columns (Thermo Fisher Scientific) and dried by vacuum centrifugation prior to LC-MS analysis on an LTQ Orbitrap Velos mass spectrometer. Extracted ion chromatograms for each substrate and product peptide were generated and integrated using Skyline software ([65]) (https://skyline.ms/project/home/begin.view) and catalytic efficiency calculations from the data were performed as described ([28], [47]).

[4] = Presteady-state (stopped-flow) kinetics of Cdc14 enzyme variants with DiFMUP; type: biochemical; details: 23 °C, 200 μM DiFMUP in representative ScCdc14 progress curve, compared to ScCdc14^1-449
Description: SLiCE motif is boxed in gray.
Presteady-state kinetic analysis was performed as described previously ([34]). Enzymes were exchanged into Cdc14 reaction buffer using a desalting column and flash-frozen in liquid nitrogen. Prior to use, aliquots were thawed and clarified at 16,000g for 5 min to remove any insoluble material and protein concentration was subsequently determined by Bradford assay. Presteady-state measurements were made by mixing enzyme and varying DiFMUP concentrations at 23 °C on an SFM-3000 stopped-flow instrument equipped with a MOS-200/M spectrophotometer (BioLogic) as described ([64]). The excitation wavelength was 390-nm and emission was selected using a 409-nm long pass filter (Semrock FF02-409/LP-25). A standard curve was generated by measuring the fluorescence of defined concentrations of the product DiFMU reconstituted in Cdc14 reaction buffer under identical conditions. Raw data were fit with Equation 1 in Prism:(1) Y=At+B(1−e^−bt)+C

[5] = DiFMUP, pH 7.5, 30 °C, S429 phosphosite mutant series, printed "(Fig. 6)" for ScCdc141-449

B1: ScCdc14^1-449: truncation of S. cerevisiae Cdc14 that retains the SLiCE motif (protein)
chain: MRRSVYLDNTIEFLRGRVYLGAYDYTPEDTDELVFFTVEDAIFYNSFHLDFGPMNIGHLYRFAVIFHEILNDPENANKAVVFYSSASTRQRANAACMLCCYMILVQAWTPHQVLQPLAQVDPPFMPFRDAGYSNADFEITIQDVVYGVWRAKEKGLIDLHSFNLESYEKYEHVEFGDFNVLTPDFIAFASPQEDHPKGYLATKSSHLNQPFKSVLNFFANNNVQLVVRLNSHLYNKKHFEDIGIQHLDLIFEDGTCPDLSIVKNFVGAAETIIKRGGKIAVHCKAGLGRTGCLIGAHLIYTYGFTANECIGFLRFIRPGMVVGPQQHWLYLHQNDFREWKYTTRISLKPSEAIGGLYPLISLEEYRLQKKKLKDDKRVAQNNIEGELRDLTMTPPSNGHGALSARNSSQPSTANNGSNSFKSSAVPQTSPGQPRKGQNGSNTIEDINNN
modifications: left off: 6xHis, N-terminal, state not stated
- activity compared with full-length ScCdc14 [1]: indistinguishable from full-length ScCdc14
- kcat [2, 5]: 1.71 ± 0.24 s⁻¹
- catalytic efficiency (kcat/KM) for high affinity substrates [3]: indistinguishable

B2: ScCdc14^1-374: catalytic domain alone lacking the SLiCE motif (protein)
chain: MRRSVYLDNTIEFLRGRVYLGAYDYTPEDTDELVFFTVEDAIFYNSFHLDFGPMNIGHLYRFAVIFHEILNDPENANKAVVFYSSASTRQRANAACMLCCYMILVQAWTPHQVLQPLAQVDPPFMPFRDAGYSNADFEITIQDVVYGVWRAKEKGLIDLHSFNLESYEKYEHVEFGDFNVLTPDFIAFASPQEDHPKGYLATKSSHLNQPFKSVLNFFANNNVQLVVRLNSHLYNKKHFEDIGIQHLDLIFEDGTCPDLSIVKNFVGAAETIIKRGGKIAVHCKAGLGRTGCLIGAHLIYTYGFTANECIGFLRFIRPGMVVGPQQHWLYLHQNDFREWKYTTRISLKPSEAIGGLYPLISLEEYRLQKKKLKD
modifications: left off: 6xHis, N-terminal, state not stated
- decrease in kcat compared to ScCdc14^1-449 ([2]; DiFMUP, steady state): 16 fold

B3: ScCdc14^P433A/K435A: SLiCE motif point mutant generated in ScCdc14^1-449 (protein)
chain: B1 chain with P433A, K435A
modifications: left off: 6xHis, N-terminal, state not stated
- postburst linear rate (primarily reflecting k3) [4]: greatly reduced
- kcat ([2]; pH 7.5): 0.27 ± 0.03 s⁻¹
- catalytic efficiency (kcat/KM) for low affinity substrates ([3]; compared to ScCdc14^1-449): modest, but consistent and statistically significant, increase in catalytic efficiency
- catalytic efficiency (kcat/KM) for high affinity substrates [3]: indistinguishable

B4: ScCdc14^S429E (protein, UniProt Q00684 1-551, looked up, variant S429E)
Tyrosine-protein phosphatase …: MRRSVYLDNTIEFLRGRVYLGAYDYTPEDTDELVFFTVEDAIFYNSFHLDFGPMNIGHLYRFAVIFHEILNDPENANKAVVFYSSASTRQRANAACMLCCYMILVQAWTPHQVLQPLAQVDPPFMPFRDAGYSNADFEITIQDVVYGVWRAKEKGLIDLHSFNLESYEKYEHVEFGDFNVLTPDFIAFASPQEDHPKGYLATKSSHLNQPFKSVLNFFANNNVQLVVRLNSHLYNKKHFEDIGIQHLDLIFEDGTCPDLSIVKNFVGAAETIIKRGGKIAVHCKAGLGRTGCLIGAHLIYTYGFTANECIGFLRFIRPGMVVGPQQHWLYLHQNDFREWKYTTRISLKPSEAIGGLYPLISLEEYRLQKKKLKDDKRVAQNNIEGELRDLTMTPPSNGHGALSARNSSQPSTANNGSNSFKSSAVPQTEPGQPRKGQNGSNTIEDINNNRNPTSHANRKVVIESNNSDDESMQDTNGTSNHYPKVSRKKNDISSASSSRMEDNEPSATNINNAADDTILRQLLPKNRRVTSGRRTTSAAGGIRKISGSIKK
- kcat [2, 5]: 0.15 ± 0.01 s⁻¹
